Results from the RNAGym collection of RNA variant scans (doi:10.1093/molbev/msab373).

B1: Azoarcus group I ribozyme (parent)
chain: GUGCCUUGCGCCGGGAAACCACGCAAGGGAUGGUGUCAAAUUCGGCGAAACCUAAGCGCCCGCCCGGGCGUAUGGCAACGCCGAGCCAAGCUUCGGCGCCUGCGCCGAUGAAGGUGUAGAGACUAGACGGCACCCACCUAAGGCAAACGCUAUGGUGAAGGCAUAGUCCAGGGAGUGGCGAAAGUCACACAAACCGG

Variants of: B1
Assay: reverse-splicing fitness (ratio to wild type); higher = more active; in vitro selection; Mg2+ level not given
In short: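 An in vitro group I ribozyme library with randomized positions was T7-transcribed and gel-purified. In triplicate, 10 pmol RNA in EPPS pH 7.5 was reacted with 50 pmoles of a 30-nt RNA substrate for 1 h at 37 °C across several added MgCl2 levels (1–48 mM), then stopped with EDTA. Products were reverse transcribed from a substrate-complementary primer, PCR-amplified and sequenced (HiSeq 4000). Fitness is a variant's read proportion after selection over that before, normalised to wild type.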
GUGCCUUGCGCCGGGAAACCACGCAAGGGAUGGUGUCAAAUUCGGCGAAACCUAAGCGCCCGCCCGGGCGUAUGGCAACGCUGAGCCAAGCUUCGGCGCCUGCGCCGAUGAAGGUGUAGUGACUAGACGGCACCCACCUAAGGCAAACGUUAUGGUGAAGGCAUAGUCAAGGGAGAGGCGAAAGUCACACAAACCGG gave a reverse-splicing fitness of 0.00329. GUGCCUUGCGCCGGGAAACCACGCAAGGGAUGGUGUCAAAUUCGGCGAAACCUAAGCGCCCGCCCGGGCGUAUGGCAACGCUGAGCCAAGCUUCGGCGCCUGCGCCGAUGAAGGUGUAGUGACUAGACGGCACCCACCUAAGGCAAACGUUAUGGUGAAGGCAUAGUCAAGGGAGCGGCGAAAGUCACACAAACCGG showed a reverse-splicing fitness of 0.00192. For GUGCCUUGCGCCGGGAAACCACGCAAGGGAUGGUGUCAAAUUCGGCGAAACCUAAGCGCCCGCCCGGGCGUAUGGCAACGCUGAGCCAAGCUUCGGCGCCUGCGCCGAUGAAGGUGUAGUGACUAGACGGCACCCACCUAAGGCAAACGUUAUGGUGAAGGCAUAGUCAAGGGAGGGGCGAAAGUCACACAAACCGG, the reverse-splicing fitness was 0.00208. In the case of GUGCCUUGCGCCGGGAAACCACGCAAGGGAUGGUGUCAAAUUCGGCGAAACCUAAGCGCCCGCCCGGGCGUAUGGCAACGCUGAGCCAAGCUUCGGCGCCUGCGCCGAUGAAGGUGUAGUGACUAGACGGCACCCACCUAAGGCAAACGGUAUGGUGAAGGCAUAGUCUAGGGAGCGGCGAAAGUCACACAAACCGG, the reverse-splicing fitness is reported as 0.00349. Work on GUGCCUUGCGCCGGGAAACCACGCAAGGGAUGGUGUCAAAUUCGGCGAAACCUAAGCGCCCGCCCGGGCGUAUGGCAACGCUGAGCCAAGCUUCGGCGCCUGCGCCGAUGAAGGUGUAGUGACUAGACGGCACCCACCUAAGGCAAACGGUAUGGUGAAGGCAUAGUCUAGGGAGGGGCGAAAGUCACACAAACCGG yielded a reverse-splicing fitness of 0.00244. In the case of GUGCCUUGCGCCGGGAAACCACGCAAGGGAUGGUGUCAAAUUCGGCGAAACCUAAGCGCCCGCCCGGGCGUAUGGCAACGCUGAGCCAAGCUUCGGCGCCUGCGCCGAUGAAGGUGUAGUGACUAGACGGCACCCACCUAAGGCAAACGCUAUGGUGAAGGCAUAGUCAAGGGAGUGGCGAAAGUCACACAAACCGG, the reverse-splicing fitness is reported as 0.00227. With GUGCCUUGCGCCGGGAAACCACGCAAGGGAUGGUGUCAAAUUCGGCGAAACCUAAGCGCCCGCCCGGGCGUAUGGCAACGCUGAGCCAAGCUUCGGCGCCUGCGCCGAUGAAGGUGUAGUGACUAGACGGCACCCACCUAAGGCAAACGCUAUGGUGAAGGCAUAGUCUAGGGAGUGGCGAAAGUCACACAAACCGG the reverse-splicing fitness was 0.00737. Work on GUGCCUUGCGCCGGGAAACCACGCAAGGGAUGGUGUCAAAUUCGGCGAAACCUAAGCGCCCGCCCGGGCGUAUGGCAACGCUGAGCCAAGCUUCGGCGCCUGCGCCGAUGAAGGUGUAGUGACUAGACGGCACCCACCUAAGGCAAACGCUAUGGUGAAGGCAUAGUCGAGGGAGUGGCGAAAGUCACACAAACCGG yielded a reverse-splicing fitness of 0.00592. GUGCCUUGCGCCGGGAAACCACGCAAGGGAUGGUGUCAAAUUCGGCGAAACCUAAGCGCCCGCCCGGGCGUAUGGCAACGCUGAGCCAAGCUUCGGCGCCUGCGCCGAUGAAGGUGUAGUGACUAGACGGCACCCACCUAAGGCAAACGUUAUGGUGAAGGCAUAGUCUAGGGAGUGGCGAAAGUCACACAAACCGG showed a reverse-splicing fitness of 0.00548. For GUGCCUUGCGCCGGGAAACCACGCAAGGGAUGGUGUCAAAUUCGGCGAAACCUAAGCGCCCGCCCGGGCGUAUGGCAACGCUGAGCCAAGCUUCGGCGCCUGCGCCGAUGAAGGUGUAGUGACUAGACGGCACCCACCUAAGGCAAACGUUAUGGUGAAGGCAUAGUCAAGGGAGUGGCGAAAGUCACACAAACCGG, the reverse-splicing fitness was 0.00404. Variant GUGCCUUGCGCCGGGAAACCACGCAAGGGAUGGUGUCAAAUUCGGCGAAACCUAAGCGCCCGCCCGGGCGUAUGGCAACGCUGAGCCAAGCUUCGGCGCCUGCGCCGAUGAAGGUGUAGUGACUAGACGGCACCCACCUAAGGCAAACGUUAUGGUGAAGGCAUAGUCGAGGGAGUGGCGAAAGUCACACAAACCGG has a reverse-splicing fitness of 0.00457. GUGCCUUGCGCCGGGAAACCACGCAAGGGAUGGUGUCAAAUUCGGCGAAACCUAAGCGCCCGCCCGGGCGUAUGGCAACGCUGAGCCAAGCUUCGGCGCCUGCGCCGAUGAAGGUGUAGUGACUAGACGGCACCCACCUAAGGCAAACGCUAUGGUGAAGGCAUAGUCAAGGGAGCGGCGAAAGUCACACAAACCGG showed a reverse-splicing fitness of 0.00216. Work on GUGCCUUGCGCCGGGAAACCACGCAAGGGAUGGUGUCAAAUUCGGCGAAACCUAAGCGCCCGCCCGGGCGUAUGGCAACGCUGAGCCAAGCUUCGGCGCCUGCGCCGAUGAAGGUGUAGUGACUAGACGGCACCCACCUAAGGCAAACGCUAUGGUGAAGGCAUAGUCAAGGGAGGGGCGAAAGUCACACAAACCGG yielded a reverse-splicing fitness of 0.00126. GUGCCUUGCGCCGGGAAACCACGCAAGGGAUGGUGUCAAAUUCGGCGAAACCUAAGCGCCCGCCCGGGCGUAUGGCAACGCUGAGCCAAGCUUCGGCGCCUGCGCCGAUGAAGGUGUAGUGACUAGACGGCACCCACCUAAGGCAAACGCUAUGGUGAAGGCAUAGUCAAGGGAGAGGCGAAAGUCACACAAACCGG showed a reverse-splicing fitness of 0.00238. GUGCCUUGCGCCGGGAAACCACGCAAGGGAUGGUGUCAAAUUCGGCGAAACCUAAGCGCCCGCCCGGGCGUAUGGCAACGCUGAGCCAAGCUUCGGCGCCUGCGCCGAUGAAGGUGUAGUGACUAGACGGCACCCACCUAAGGCAAACGUUAUGGUGAAGGCAUAGUCCAGGGAGUGGCGAAAGUCACACAAACCGG showed a reverse-splicing fitness of 0.0886. Variant GUGCCUUGCGCCGGGAAACCACGCAAGGGAUGGUGUCAAAUUCGGCGAAACCUAAGCGCCCGCCCGGGCGUAUGGCAACGCUGAGCCAAGCUUCGGCGCCUGCGCCGAUGAAGGUGUAGUGACUAGACGGCACCCACCUAAGGCAAACGCUAUGGUGAAGGCAUAGUCGAGGGAGGGGCGAAAGUCACACAAACCGG has a reverse-splicing fitness of 0.0015. With GUGCCUUGCGCCGGGAAACCACGCAAGGGAUGGUGUCAAAUUCGGCGAAACCUAAGCGCCCGCCCGGGCGUAUGGCAACGCUGAGCCAAGCUUCGGCGCCUGCGCCGAUGAAGGUGUAGUGACUAGACGGCACCCACCUAAGGCAAACGCUAUGGUGAAGGCAUAGUCGAGGGAGAGGCGAAAGUCACACAAACCGG the reverse-splicing fitness was 0.00252. GUGCCUUGCGCCGGGAAACCACGCAAGGGAUGGUGUCAAAUUCGGCGAAACCUAAGCGCCCGCCCGGGCGUAUGGCAACGCUGAGCCAAGCUUCGGCGCCUGCGCCGAUGAAGGUGUAGUGACUAGACGGCACCCACCUAAGGCAAACGCUAUGGUGAAGGCAUAGUCGAGGGAGCGGCGAAAGUCACACAAACCGG gave a reverse-splicing fitness of 0.00306. Variant GUGCCUUGCGCCGGGAAACCACGCAAGGGAUGGUGUCAAAUUCGGCGAAACCUAAGCGCCCGCCCGGGCGUAUGGCAACGCUGAGCCAAGCUUCGGCGCCUGCGCCGAUGAAGGUGUAGUGACUAGACGGCACCCACCUAAGGCAAACGUUAUGGUGAAGGCAUAGUCCAGGGAGCGGCGAAAGUCACACAAACCGG has a reverse-splicing fitness of 0.0451. Work on GUGCCUUGCGCCGGGAAACCACGCAAGGGAUGGUGUCAAAUUCGGCGAAACCUAAGCGCCCGCCCGGGCGUAUGGCAACGCUGAGCCAAGCUUCGGCGCCUGCGCCGAUGAAGGUGUAGUGACUAGACGGCACCCACCUAAGGCAAACGUUAUGGUGAAGGCAUAGUCCAGGGAGAGGCGAAAGUCACACAAACCGG yielded a reverse-splicing fitness of 0.0245. For GUGCCUUGCGCCGGGAAACCACGCAAGGGAUGGUGUCAAAUUCGGCGAAACCUAAGCGCCCGCCCGGGCGUAUGGCAACGCUGAGCCAAGCUUCGGCGCCUGCGCCGAUGAAGGUGUAGUGACUAGACGGCACCCACCUAAGGCAAACGUUAUGGUGAAGGCAUAGUCCAGGGAGGGGCGAAAGUCACACAAACCGG, the reverse-splicing fitness was 0.00728. Work on GUGCCUUGCGCCGGGAAACCACGCAAGGGAUGGUGUCAAAUUCGGCGAAACCUAAGCGCCCGCCCGGGCGUAUGGCAACGCUGAGCCAAGCUUCGGCGCCUGCGCCGAUGAAGGUGUAGUGACUAGACGGCACCCACCUAAGGCAAACGGUAUGGUGAAGGCAUAGUCCAGGGAGAGGCGAAAGUCACACAAACCGG yielded a reverse-splicing fitness of 0.00531. Variant GUGCCUUGCGCCGGGAAACCACGCAAGGGAUGGUGUCAAAUUCGGCGAAACCUAAGCGCCCGCCCGGGCGUAUGGCAACGCUGAGCCAAGCUUCGGCGCCUGCGCCGAUGAAGGUGUAGUGACUAGACGGCACCCACCUAAGGCAAACGGUAUGGUGAAGGCAUAGUCCAGGGAGCGGCGAAAGUCACACAAACCGG has a reverse-splicing fitness of 0.00788. Work on GUGCCUUGCGCCGGGAAACCACGCAAGGGAUGGUGUCAAAUUCGGCGAAACCUAAGCGCCCGCCCGGGCGUAUGGCAACGCUGAGCCAAGCUUCGGCGCCUGCGCCGAUGAAGGUGUAGUGACUAGACGGCACCCACCUAAGGCAAACGGUAUGGUGAAGGCAUAGUCCAGGGAGGGGCGAAAGUCACACAAACCGG yielded a reverse-splicing fitness of 0.0022. GUGCCUUGCGCCGGGAAACCACGCAAGGGAUGGUGUCAAAUUCGGCGAAACCUAAGCGCCCGCCCGGGCGUAUGGCAACGCUGAGCCAAGCUUCGGCGCCUGCGCCGAUGAAGGUGUAGUGACUAGACGGCACCCACCUAAGGCAAACGUUAUGGUGAAGGCAUAGUCGAGGGAGGGGCGAAAGUCACACAAACCGG gave a reverse-splicing fitness of 0.00155. With GUGCCUUGCGCCGGGAAACCACGCAAGGGAUGGUGUCAAAUUCGGCGAAACCUAAGCGCCCGCCCGGGCGUAUGGCAACGCUGAGCCAAGCUUCGGCGCCUGCGCCGAUGAAGGUGUAGUGACUAGACGGCACCCACCUAAGGCAAACGUUAUGGUGAAGGCAUAGUCGAGGGAGCGGCGAAAGUCACACAAACCGG the reverse-splicing fitness was 0.00284. GUGCCUUGCGCCGGGAAACCACGCAAGGGAUGGUGUCAAAUUCGGCGAAACCUAAGCGCCCGCCCGGGCGUAUGGCAACGCUGAGCCAAGCUUCGGCGCCUGCGCCGAUGAAGGUGUAGUGACUAGACGGCACCCACCUAAGGCAAACGUUAUGGUGAAGGCAUAGUCGAGGGAGAGGCGAAAGUCACACAAACCGG showed a reverse-splicing fitness of 0.0036. For GUGCCUUGCGCCGGGAAACCACGCAAGGGAUGGUGUCAAAUUCGGCGAAACCUAAGCGCCCGCCCGGGCGUAUGGCAACGCUGAGCCAAGCUUCGGCGCCUGCGCCGAUGAAGGUGUAGUGACUAGACGGCACCCACCUAAGGCAAACGUUAUGGUGAAGGCAUAGUCUAGGGAGGGGCGAAAGUCACACAAACCGG, the reverse-splicing fitness was 0.00209. In the case of GUGCCUUGCGCCGGGAAACCACGCAAGGGAUGGUGUCAAAUUCGGCGAAACCUAAGCGCCCGCCCGGGCGUAUGGCAACGCUGAGCCAAGCUUCGGCGCCUGCGCCGAUGAAGGUGUAGUGACUAGACGGCACCCACCUAAGGCAAACGUUAUGGUGAAGGCAUAGUCUAGGGAGCGGCGAAAGUCACACAAACCGG, the reverse-splicing fitness is reported as 0.0038. In the case of GUGCCUUGCGCCGGGAAACCACGCAAGGGAUGGUGUCAAAUUCGGCGAAACCUAAGCGCCCGCCCGGGCGUAUGGCAACGCUGAGCCAAGCUUCGGCGCCUGCGCCGAUGAAGGUGUAGUGACUAGACGGCACCCACCUAAGGCAAACGUUAUGGUGAAGGCAUAGUCUAGGGAGAGGCGAAAGUCACACAAACCGG, the reverse-splicing fitness is reported as 0.00407.
